Laboratory results taken from patent publication US20230026627A1, “Compositions and Methods of Manufacturing Star Polymers for Ligand Display and/or Drug Delivery” (Vaccitech North America, Inc., priority 2019, published 2023).

Assays:
[1] = Turbidity (OD at 490 nm) / aggregation in aqueous buffer (PBS); assay type: physicochemical; conditions: turbidity (OD at 490 nm) >0.05 indicates aggregating
Excerpt: Soluble: Capable of becoming molecularly or ionically dispersed in a solvent to form a homogeneous solution. […] Solubility can be determined by visual inspection, by turbidity measurements or by dynamic light scattering.
It was unknown a priori what composition and magnitude of charge would be needed to fully solubilize polymer arms with high densities of amphiphilic or hydrophobic drug (D) molecules. Therefore, we attached high densities (˜10 mol %) of the small molecule aromatic heterocycle, 2BXy, which is a TLR-7/8a, to ˜40 kDa HPMA-based polymer arms (A) through a reactive monomer (E), wherein the polymer arm (A) comprised HPMA monomers as the majority hydrophilic monomer (B) and optionally included either 10 or 20 mol % charged monomers (C) comprising either negatively or positively charged functional groups.

[2] = Hydrodynamic radius (Rh), dynamic light scattering; assay type: physicochemical; conditions: Table 5

| Substance | Turbidity, pH 7.4 ([1]; Table 5, di-block architecture) | Size, Rh (nm) [2] | Turbidity, pH 7.4 ([1]; Table 4, charged monomers, ~10 mol % TLR-7/8a) |
| --- | --- | --- | --- |
| N3-poly(HPMA-co-Ma-b-Ala-2BXy)-Pg [Compound 46] | Aggregate | >1000 nm | – |
| PAMAM-g-poly[(HPMA-co-Ma-b-Ala-2BXy)-b-HPMA]-Pg [Compound 78] | 0.041 | 12.9 nm | – |
| N3-poly[(HPMA-co-Ma-b-Ala-2BXy)-b-HPMA]-Pg [Compound 62] | 0.039 | 6.6 nm | – |
| N3-poly(HPMA-co-Ma-b-Ala-2BXy-co-Ma-b-Ala-COOH)-Pg [Compound 48] | – | – | 0.043 |
